Results on one molecule are retold here after patent publication CN111393528A (UNIV CHINA PHARMA, dated 2020).

In the assay the target is T1, FRα重组蛋白 (叶酸受体α, folate receptor α recombinant protein) (UniProt P15328 25-233, limits assumed).
T1 construct: Recombinant protein used for panning and ELISA (coated) and, after biotinylation (biotin:protein 20:1), on streptavidin sensors for BLI
Briefly: BLI (ForteBio Octet), biotinylated FRα on streptavidin sensor, scFv in solution. (In BLI a coated tip is dipped into the sample, and binding shifts an interference pattern.)

T1 sequence (P15328 25-233 limits assumed): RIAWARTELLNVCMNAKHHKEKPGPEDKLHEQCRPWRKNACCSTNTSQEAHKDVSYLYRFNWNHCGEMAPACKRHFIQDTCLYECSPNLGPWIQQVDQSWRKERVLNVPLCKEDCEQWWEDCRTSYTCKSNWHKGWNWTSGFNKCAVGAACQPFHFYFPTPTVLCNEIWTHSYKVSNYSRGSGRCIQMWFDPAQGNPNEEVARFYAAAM

B1: FR ScFv (靶向叶酸受体α的单链抗体) (scFv)
scFv: QAQLLESGGGLVQPGGSLRLSCAASGFTFSSYAMSWVRQAPGKGLEWVSAISGSGGSTYYADSVEGRFTISRDNSKNTLYLQMNSLRAEDTAVYYCARRAVGRGWRFWGQGTMVTVSSGGGGSGGGGSGGGGSDIVLTQSPSASGTPGQRVTISCSGSSSNIGSNYVYWYQQLPGTAPKLLIYRNNQRPSGVSDRFSGSKSGTSASLAISGLRSEDEADYYCAAWDDSLSARVFGGGTKVDIKR
notes: Soluble scFv expressed in E. coli BL21 from pET22b (BamH I/Hind III), purified on a nickel column; about 28.32 kDa; Vector-derived residues at the N-terminus (pelB leader, cloning site) are not described; also called 叶酸受体α单链抗体; FRα单链抗体; not shown: C-terminal His tag from the pET22b vector (fused downstream of the gene)
As to B1, the Kd came out at 41.3 nM, the koff was 0.00127 s⁻¹ and the kon was found to be 30900 M⁻¹ s⁻¹.

What is called Kd is the constant that tells how readily two partners part at equilibrium. The term koff denotes the rate constant with which the complex falls apart. As a reminder, the kon is a measure of how fast the partners come together.
